Assay results: US20250043001A1 (Xencor, published 2025)

Target: T1, STEAP1 (UniProt Q9UHE8 1-339, limits assumed)
T1 construct: whole, on cells; also called Six-Transmembrane Epithelial Antigen of the Prostate 1
Assay: cell binding (MFI) on LOX-IMVI cells expressing STEAP1
Text: STEAP1 x CD28 bsAbs were engineered in 2+1 formats (mAb-scFv or Fab₂-scFv-Fc) to investigate the effects of bivalent binding to STEAP1 antigen compared with monovalent binding of a STEAP1 x CD28 bsAb in the 1+1 Fab-scFv format. LOX-IMVI cells (which express both STEAP1 at—8000 antigens/cell as well as an aCD3-scFv in order to provide Signal 1) were mixed with purified T cells at a 1:1 E:T ratio. As depicted in FIG. 36, XENP47235 in the […] format reaches a higher level of binding as measured by the MFI, indicating a higher antigen binding capacity and potentially higher efficacy. […] Each format may be advantageous in different contexts.

binding result: binds
B1: XENP47241 (bispecific antibody)
heavy 1: QVQVQESGPGLVKPSQTLSLTCTVSGYSITSDYSWNWIRQPPGKKLEWIGYIGTSGSTVYNPSLKSRVTISRDTSKNQFSLKLSSVTAADTAVYYCARERNYDYELYYYAMDYWGQGTLVTVSSASTKGPSVFPLAPSSKSTSGGTAALGCLVKDYFPEPVTVSWNSGALTSGVHTFPAVLQSSGLYSLSSVVTVPSSSLGTQTYICNVNHKPSDTKVDKKVEPKSCDKTHTCPPCPAPPVAGPSVFLFPPKPKDTLMISRTPEVTCVVVDVKHEDPEVKFNWYVDGVEVHNAKTKPREEEYNSTYRVVSVLTVLHQDWLNGKEYKCKVSNKALPAPIEKTISKAKGQPREPQVYTLPPSREEMTKNQVSLTCDVSGFYPSDIAVEWESDGQPENNYKTTPPVLDSDGSFFLYSKLTVDKSRWEQGDVFSCSVLHEALHSHYTQKSLSLSPGK
heavy 2: not shown
light 1: not shown
light 2: not shown
notes: also called STEAP1 x CD28 bsAb in the 2+1 mAb-scFv format
